B1: glmS ribozyme (parent)
chain: AUAAAAGCGCCAGAACUACAGAAAUGUAGUUGACGAGGAGGAGGUUUAUCGAAUUUUCGGCGGAUGCCUCCAAA

± gives the standard error. This sample holds only a part of the variants without activity.

Holding throughout (conditions): with glucosamine-6-phosphate
In series [1] the parent is B1. In words: self-cleavage kobs at 40 uM GlcN6P; higher = faster cleavage; RNA array. A digest of the protocol: (§1)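 Glucosamine-6-phosphate in HEPES/KCl/Mg(OAc)2 buffer, at 40 μM to 10 mM, was flowed over barcoded ribozyme variants transcribed in situ by E. coli RNA polymerase on sequenced MiSeq chips. Tracking was through a hybridised Cy3 probe at 37 °C. kobs, kcat and KM came from exponential decay fits and weighted Michaelis–Menten fits of normalised per-tile medians.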

In series [2] the parent is B1. In words: self-cleavage kobs at 160 uM GlcN6P; higher = faster cleavage; RNA array. Put shortly: as §1
In series [3] the parent is B1. In words: self-cleavage kobs at 640 uM GlcN6P; higher = faster cleavage; RNA array. A digest of the protocol:
as §1

Series [4] covers variants of B1. In words: self-cleavage kobs at 2500 uM GlcN6P; higher = faster cleavage; RNA array. Put shortly:
as §1

The variants in series [5] derive from B1. In words: self-cleavage kobs at 10000 uM GlcN6P; higher = faster cleavage; RNA array. Put shortly:
as §1

Regarding A36U U45A C71G, the “self-cleavage kobs at 40 uM GlcN6P” value with glucosamine-6-phosphate [1] was less than 1e-05 s⁻¹.
As to A33U G44U A52U, the “self-cleavage kobs at 40 uM GlcN6P” value with glucosamine-6-phosphate [1] was less than 1e-05 s⁻¹. The “self-cleavage kobs at 160 uM GlcN6P” value with glucosamine-6-phosphate [2] is less than 1e-05 s⁻¹. The “self-cleavage kobs at 640 uM GlcN6P” value in the series with glucosamine-6-phosphate [3] is less than 1e-05 s⁻¹. Moreover, the “self-cleavage kobs at 2500 uM GlcN6P” value in the series with glucosamine-6-phosphate [4] was less than 1e-05 s⁻¹.
For G7U G32A G43A, in the series with glucosamine-6-phosphate [1], the “self-cleavage kobs at 40 uM GlcN6P” value was less than 1e-05 s⁻¹. Besides, the “self-cleavage kobs at 160 uM GlcN6P” value with glucosamine-6-phosphate [2] is less than 1e-05 s⁻¹. Besides, the “self-cleavage kobs at 640 uM GlcN6P” value in the series with glucosamine-6-phosphate [3] was less than 1e-05 s⁻¹. Besides, in the series with glucosamine-6-phosphate [5], the “self-cleavage kobs at 10000 uM GlcN6P” value was less than 1e-05 s⁻¹.
Regarding A12C U56G C68A C70A, in the series with glucosamine-6-phosphate [1], the “self-cleavage kobs at 40 uM GlcN6P” value was less than 1e-05 s⁻¹.
For C10G G37C U47A U57A G66C C70G, the “self-cleavage kobs at 40 uM GlcN6P” value with glucosamine-6-phosphate [1] was less than 1e-05 s⁻¹. The “self-cleavage kobs at 10000 uM GlcN6P” value with glucosamine-6-phosphate [5] was less than 1e-05 s⁻¹.
Regarding G7U C8A U47G G60U, the “self-cleavage kobs at 40 uM GlcN6P” value with glucosamine-6-phosphate [1] was less than 1e-05 s⁻¹. For the same variant, the “self-cleavage kobs at 10000 uM GlcN6P” value in the series with glucosamine-6-phosphate [5] was less than 1e-05 s⁻¹.
For the variant C10A G40U U54C, the “self-cleavage kobs at 40 uM GlcN6P” value with glucosamine-6-phosphate [1] is less than 1e-05 s⁻¹. In the series with glucosamine-6-phosphate [5], the “self-cleavage kobs at 10000 uM GlcN6P” value is less than 1e-05 s⁻¹.
For the variant G32U A36G U45C C68G, in the series with glucosamine-6-phosphate [1], the “self-cleavage kobs at 40 uM GlcN6P” value is less than 1e-05 s⁻¹.
For G38U U46G G60C, the “self-cleavage kobs at 40 uM GlcN6P” value with glucosamine-6-phosphate [1] was less than 1e-05 s⁻¹. Further, the “self-cleavage kobs at 160 uM GlcN6P” value with glucosamine-6-phosphate [2] was less than 1e-05 s⁻¹. The “self-cleavage kobs at 640 uM GlcN6P” value with glucosamine-6-phosphate [3] is less than 1e-05 s⁻¹. Besides, the “self-cleavage kobs at 2500 uM GlcN6P” value with glucosamine-6-phosphate [4] is less than 1e-05 s⁻¹.
Consider C11A A48G, for which, in the series with glucosamine-6-phosphate [1], the “self-cleavage kobs at 40 uM GlcN6P” value was less than 1e-05 s⁻¹. Also, in the series with glucosamine-6-phosphate [2], the “self-cleavage kobs at 160 uM GlcN6P” value was less than 1e-05 s⁻¹. For the same variant, in the series with glucosamine-6-phosphate [3], the “self-cleavage kobs at 640 uM GlcN6P” value is less than 1e-05 s⁻¹. Moreover, the “self-cleavage kobs at 2500 uM GlcN6P” value with glucosamine-6-phosphate [4] was less than 1e-05 s⁻¹.
Regarding A53G C71G, in the series with glucosamine-6-phosphate [1], the “self-cleavage kobs at 40 uM GlcN6P” value amounted to 0.000153 ± 2e-05 s⁻¹. In addition, in the series with glucosamine-6-phosphate [3], the “self-cleavage kobs at 640 uM GlcN6P” value turned out to be 0.000377 ± 5.8e-05 s⁻¹. Besides, the “self-cleavage kobs at 2500 uM GlcN6P” value with glucosamine-6-phosphate [4] was found to be 0.00062 ± 0.00013 s⁻¹.
Turning to A12U A15G A39G, in the series with glucosamine-6-phosphate [1], the “self-cleavage kobs at 40 uM GlcN6P” value stood at 0.00105 ± 0.00021 s⁻¹. Besides, the “self-cleavage kobs at 10000 uM GlcN6P” value in the series with glucosamine-6-phosphate [5] came out at 0.0688 ± 0.023 s⁻¹.
In the same order, the values of A6C G9C C11U C34G G38A U55C G59A C67U are less than 1e-05 s⁻¹ and less than 1e-05 s⁻¹.
On to G40C U49C, for which, in the series with glucosamine-6-phosphate [1], the “self-cleavage kobs at 40 uM GlcN6P” value was less than 1e-05 s⁻¹. The “self-cleavage kobs at 640 uM GlcN6P” value with glucosamine-6-phosphate [3] is less than 1e-05 s⁻¹. The “self-cleavage kobs at 2500 uM GlcN6P” value with glucosamine-6-phosphate [4] is less than 1e-05 s⁻¹. The “self-cleavage kobs at 10000 uM GlcN6P” value with glucosamine-6-phosphate [5] was less than 1e-05 s⁻¹.
With C11A G32A A39U, the “self-cleavage kobs at 40 uM GlcN6P” value in the series with glucosamine-6-phosphate [1] was less than 1e-05 s⁻¹. The “self-cleavage kobs at 640 uM GlcN6P” value with glucosamine-6-phosphate [3] was less than 1e-05 s⁻¹.
Take A52U A64G U69A: the “self-cleavage kobs at 40 uM GlcN6P” value with glucosamine-6-phosphate [1] was less than 1e-05 s⁻¹.
On to G40A A48C U57A C61G, for which, in the series with glucosamine-6-phosphate [1], the “self-cleavage kobs at 40 uM GlcN6P” value is less than 1e-05 s⁻¹. Also, the “self-cleavage kobs at 2500 uM GlcN6P” value with glucosamine-6-phosphate [4] was less than 1e-05 s⁻¹.
A14G G29C G40A C58U: the “self-cleavage kobs at 40 uM GlcN6P” value in the series with glucosamine-6-phosphate [1] was less than 1e-05 s⁻¹. Also, in the series with glucosamine-6-phosphate [3], the “self-cleavage kobs at 640 uM GlcN6P” value is less than 1e-05 s⁻¹.
As for C34A G44U G51C, the “self-cleavage kobs at 40 uM GlcN6P” value with glucosamine-6-phosphate [1] is less than 1e-05 s⁻¹. In addition, the “self-cleavage kobs at 640 uM GlcN6P” value in the series with glucosamine-6-phosphate [3] is less than 1e-05 s⁻¹. In addition, the “self-cleavage kobs at 2500 uM GlcN6P” value with glucosamine-6-phosphate [4] was less than 1e-05 s⁻¹. Moreover, in the series with glucosamine-6-phosphate [5], the “self-cleavage kobs at 10000 uM GlcN6P” value was less than 1e-05 s⁻¹.
Turning to G13A U46C C67A, in the series with glucosamine-6-phosphate [1], the “self-cleavage kobs at 40 uM GlcN6P” value is less than 1e-05 s⁻¹. The “self-cleavage kobs at 640 uM GlcN6P” value with glucosamine-6-phosphate [3] is less than 1e-05 s⁻¹.
For A12G A15C G35U C71U, in the series with glucosamine-6-phosphate [1], the “self-cleavage kobs at 40 uM GlcN6P” value was less than 1e-05 s⁻¹. The “self-cleavage kobs at 160 uM GlcN6P” value with glucosamine-6-phosphate [2] is less than 1e-05 s⁻¹.
With G44U A53C C58U C71U, in the series with glucosamine-6-phosphate [1], the “self-cleavage kobs at 40 uM GlcN6P” value is less than 1e-05 s⁻¹. In addition, the “self-cleavage kobs at 160 uM GlcN6P” value in the series with glucosamine-6-phosphate [2] is less than 1e-05 s⁻¹. Also, the “self-cleavage kobs at 640 uM GlcN6P” value in the series with glucosamine-6-phosphate [3] was less than 1e-05 s⁻¹. Besides, the “self-cleavage kobs at 2500 uM GlcN6P” value in the series with glucosamine-6-phosphate [4] was less than 1e-05 s⁻¹. The “self-cleavage kobs at 10000 uM GlcN6P” value with glucosamine-6-phosphate [5] was less than 1e-05 s⁻¹.
C8A G40U C61U U69G: the “self-cleavage kobs at 40 uM GlcN6P” value with glucosamine-6-phosphate [1] is less than 1e-05 s⁻¹. Further, in the series with glucosamine-6-phosphate [5], the “self-cleavage kobs at 10000 uM GlcN6P” value is less than 1e-05 s⁻¹.
Regarding A15U G60U, the “self-cleavage kobs at 40 uM GlcN6P” value with glucosamine-6-phosphate [1] was less than 1e-05 s⁻¹. The “self-cleavage kobs at 160 uM GlcN6P” value in the series with glucosamine-6-phosphate [2] was less than 1e-05 s⁻¹. In addition, the “self-cleavage kobs at 640 uM GlcN6P” value with glucosamine-6-phosphate [3] was less than 1e-05 s⁻¹. Moreover, in the series with glucosamine-6-phosphate [4], the “self-cleavage kobs at 2500 uM GlcN6P” value is less than 1e-05 s⁻¹. Also, in the series with glucosamine-6-phosphate [5], the “self-cleavage kobs at 10000 uM GlcN6P” value is less than 1e-05 s⁻¹.
With C16A G43C, the “self-cleavage kobs at 40 uM GlcN6P” value with glucosamine-6-phosphate [1] was less than 1e-05 s⁻¹. Also, the “self-cleavage kobs at 640 uM GlcN6P” value in the series with glucosamine-6-phosphate [3] was less than 1e-05 s⁻¹. Further, the “self-cleavage kobs at 10000 uM GlcN6P” value with glucosamine-6-phosphate [5] is less than 1e-05 s⁻¹.
